From PMC6391106

Target: WT murine C3b (mouse) (UniProt P01027)
Assay: SPR; BIAcore S200; murine C3b (WT or Asn1115) amine coupled to a CM5 chip (930 ± 10 RU); analytes in 2-fold dilution series in HBST (10 mM HEPES, 150 mM NaCl, 0.005% Tween-20, pH 7.4), 30 μl/min for 200 s; steady-state model

Sequence of full-length mouse serum-derived FH (P06909 19-1234): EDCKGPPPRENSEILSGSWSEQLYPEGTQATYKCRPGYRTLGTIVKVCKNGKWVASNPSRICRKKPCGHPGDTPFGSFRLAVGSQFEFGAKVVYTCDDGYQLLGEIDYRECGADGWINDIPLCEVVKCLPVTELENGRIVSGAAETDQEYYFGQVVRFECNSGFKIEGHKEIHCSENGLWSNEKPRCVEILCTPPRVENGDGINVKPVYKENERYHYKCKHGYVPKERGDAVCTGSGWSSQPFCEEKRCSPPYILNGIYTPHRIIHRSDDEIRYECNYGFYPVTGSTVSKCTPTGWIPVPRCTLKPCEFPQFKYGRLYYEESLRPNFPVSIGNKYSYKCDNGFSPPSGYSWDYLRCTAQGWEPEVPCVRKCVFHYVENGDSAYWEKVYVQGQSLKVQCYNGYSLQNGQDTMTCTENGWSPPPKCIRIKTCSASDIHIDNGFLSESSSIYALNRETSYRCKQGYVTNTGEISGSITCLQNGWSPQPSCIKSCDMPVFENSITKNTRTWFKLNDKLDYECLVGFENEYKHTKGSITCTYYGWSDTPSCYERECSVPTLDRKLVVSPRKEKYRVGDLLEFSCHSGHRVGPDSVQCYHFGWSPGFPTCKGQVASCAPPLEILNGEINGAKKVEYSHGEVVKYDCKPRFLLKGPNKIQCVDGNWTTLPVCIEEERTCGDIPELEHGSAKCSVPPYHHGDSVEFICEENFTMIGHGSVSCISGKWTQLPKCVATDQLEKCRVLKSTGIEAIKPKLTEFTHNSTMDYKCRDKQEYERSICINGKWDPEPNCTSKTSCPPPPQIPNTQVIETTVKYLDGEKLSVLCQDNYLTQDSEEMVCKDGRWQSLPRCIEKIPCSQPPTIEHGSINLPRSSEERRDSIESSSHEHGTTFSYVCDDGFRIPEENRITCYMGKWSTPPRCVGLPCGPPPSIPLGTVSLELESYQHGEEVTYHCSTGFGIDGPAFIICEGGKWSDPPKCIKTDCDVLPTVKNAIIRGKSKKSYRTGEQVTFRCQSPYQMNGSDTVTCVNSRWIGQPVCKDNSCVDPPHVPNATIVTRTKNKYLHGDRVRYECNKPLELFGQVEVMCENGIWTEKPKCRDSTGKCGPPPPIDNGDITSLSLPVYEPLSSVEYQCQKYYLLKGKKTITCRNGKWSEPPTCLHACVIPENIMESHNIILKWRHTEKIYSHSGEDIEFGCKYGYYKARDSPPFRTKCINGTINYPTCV

Substance | Kd
recombinant murine FH SCRs 1–5 (domain or fragment) | 2.9 µM
recombinant human FH SCRs 19–20 (domain or fragment) | 9.4 µM
recombinant murine Crry SCRs 1–5 (domain or fragment) | 3.2 µM
full-length mouse serum-derived FH (from UniProt P06909 19-1234) (natural protein) | 1.4 µM
